Tests used:
Assay in all cases: SPR, captured hENG-hFc, soluble ligand
hENG(360-586)-hFc = biological target: T1, hENG(360-586)-hFc (human, UniProt P17813 360-586)
T1 construct: not shown: human IgG1 Fc domain
T1 sequence: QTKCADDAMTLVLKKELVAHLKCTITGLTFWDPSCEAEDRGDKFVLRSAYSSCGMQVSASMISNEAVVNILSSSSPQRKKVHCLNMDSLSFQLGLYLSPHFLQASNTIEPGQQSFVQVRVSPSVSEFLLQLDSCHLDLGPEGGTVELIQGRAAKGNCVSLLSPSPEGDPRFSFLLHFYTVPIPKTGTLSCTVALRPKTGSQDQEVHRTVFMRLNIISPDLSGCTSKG

hENG(458-586)-hFc = biological target: T2, hENG(458-586)-hFc (human, UniProt P17813 458-586)
T2 construct: Expressed in COS cells, not purified; not shown: human IgG1 Fc domain
T2 sequence: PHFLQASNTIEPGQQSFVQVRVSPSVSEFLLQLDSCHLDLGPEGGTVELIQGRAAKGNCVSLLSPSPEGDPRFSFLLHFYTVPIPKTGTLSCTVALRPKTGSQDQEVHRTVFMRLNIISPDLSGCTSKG

hENG(133-346)-hFc = biological target: T3, hENG(133-346)-hFc (human, UniProt P17813 133-346)
T3 construct: not shown: human IgG1 Fc domain
T3 sequence: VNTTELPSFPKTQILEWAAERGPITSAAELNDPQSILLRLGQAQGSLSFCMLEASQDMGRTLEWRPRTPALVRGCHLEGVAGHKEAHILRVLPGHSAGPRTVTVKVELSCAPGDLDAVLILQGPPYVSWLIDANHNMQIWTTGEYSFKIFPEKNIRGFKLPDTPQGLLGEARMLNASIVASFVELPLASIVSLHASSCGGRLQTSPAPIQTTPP

hENG(26-332)-hFc = biological target: T4, hENG(26-332)-hFc (human, UniProt P17813 26-332)
T4 construct: not shown: human IgG1 Fc domain
T4 sequence: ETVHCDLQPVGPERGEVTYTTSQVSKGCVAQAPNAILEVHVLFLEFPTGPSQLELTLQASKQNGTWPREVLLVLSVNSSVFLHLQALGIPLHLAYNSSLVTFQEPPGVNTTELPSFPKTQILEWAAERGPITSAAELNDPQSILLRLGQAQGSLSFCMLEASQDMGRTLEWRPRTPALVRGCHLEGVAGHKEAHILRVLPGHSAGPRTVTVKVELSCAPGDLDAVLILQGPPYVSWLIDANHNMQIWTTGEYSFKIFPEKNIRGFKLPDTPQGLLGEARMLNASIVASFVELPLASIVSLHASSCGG

hENG(166-346)-hFc = biological target: T5, hENG(166-346)-hFc (human, UniProt P17813 166-346)
T5 construct: not shown: human IgG1 Fc domain
T5 sequence: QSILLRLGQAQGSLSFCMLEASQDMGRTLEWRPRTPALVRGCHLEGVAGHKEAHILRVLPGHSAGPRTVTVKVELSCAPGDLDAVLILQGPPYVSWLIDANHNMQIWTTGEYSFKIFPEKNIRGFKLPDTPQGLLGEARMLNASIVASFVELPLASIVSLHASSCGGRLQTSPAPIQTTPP

hENG(438-586)-hFc = biological target: T6, hENG(438-586)-hFc (human, UniProt P17813 438-586)
T6 construct: not shown: human IgG1 Fc domain
T6 sequence: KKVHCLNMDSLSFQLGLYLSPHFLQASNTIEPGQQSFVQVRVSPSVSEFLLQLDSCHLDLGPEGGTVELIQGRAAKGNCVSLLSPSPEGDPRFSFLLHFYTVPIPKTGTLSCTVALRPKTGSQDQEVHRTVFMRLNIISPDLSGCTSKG

hENG(61-346)-hFc = biological target: T7, hENG(61-346)-hFc (human, UniProt P17813 61-346)
T7 construct: not shown: human IgG1 Fc domain
T7 sequence: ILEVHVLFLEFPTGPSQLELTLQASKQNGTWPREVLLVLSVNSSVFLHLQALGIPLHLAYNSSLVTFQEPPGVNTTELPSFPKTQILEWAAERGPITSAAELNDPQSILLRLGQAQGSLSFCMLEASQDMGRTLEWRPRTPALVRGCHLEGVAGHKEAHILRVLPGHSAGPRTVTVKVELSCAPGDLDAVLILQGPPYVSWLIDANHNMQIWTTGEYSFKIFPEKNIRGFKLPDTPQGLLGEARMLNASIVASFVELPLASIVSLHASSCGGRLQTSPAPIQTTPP

hENG(26-329)-hFc = biological target: T8, hENG(26-329)-hFc (human, UniProt P17813 26-329)
T8 construct: not shown: human IgG1 Fc domain
T8 sequence: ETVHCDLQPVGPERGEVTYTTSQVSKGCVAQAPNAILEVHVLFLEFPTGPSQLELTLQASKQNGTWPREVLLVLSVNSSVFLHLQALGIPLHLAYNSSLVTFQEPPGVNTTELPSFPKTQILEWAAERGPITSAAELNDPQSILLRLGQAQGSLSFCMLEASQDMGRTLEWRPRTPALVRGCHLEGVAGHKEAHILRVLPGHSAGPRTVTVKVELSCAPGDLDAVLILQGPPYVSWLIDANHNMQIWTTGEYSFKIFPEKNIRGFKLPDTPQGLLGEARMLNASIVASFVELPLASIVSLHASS

hENG(129-346)-hFc = biological target: T9, hENG(129-346)-hFc (human, UniProt P17813 129-346)
T9 construct: not shown: human IgG1 Fc domain
T9 sequence: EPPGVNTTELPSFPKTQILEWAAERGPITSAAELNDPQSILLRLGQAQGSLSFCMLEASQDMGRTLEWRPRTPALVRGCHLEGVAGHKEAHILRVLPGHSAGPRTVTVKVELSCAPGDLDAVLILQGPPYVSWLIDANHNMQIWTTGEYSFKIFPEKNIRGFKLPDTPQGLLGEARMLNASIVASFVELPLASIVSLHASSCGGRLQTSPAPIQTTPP

hENG(26-257)-hFc = biological target: T10, hENG(26-257)-hFc (human, UniProt P17813 26-257)
T10 construct: not shown: human IgG1 Fc domain
T10 sequence: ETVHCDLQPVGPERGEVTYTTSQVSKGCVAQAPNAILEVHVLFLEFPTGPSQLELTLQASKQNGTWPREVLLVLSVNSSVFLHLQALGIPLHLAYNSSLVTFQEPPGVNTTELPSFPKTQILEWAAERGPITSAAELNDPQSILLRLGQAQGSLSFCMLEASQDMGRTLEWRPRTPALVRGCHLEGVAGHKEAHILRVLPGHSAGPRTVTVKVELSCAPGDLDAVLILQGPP

Measured: binding result

B1: human BMP-9 (ligand, UniProt Q9UK05 320-429, looked up)
chain: SAGAGSHCQKTSLRVNFEDIGWDSWIIAPKEYEAYECKGGCFFPLADDVTPTKHAIVQTLVHLKFPTKVGKACCVPTKLSPISVLYKDDMGVPTLKYHYEGMSVAECGCR
notes: also called hBMP-9
no binding (tested: 100 nM): all assays above

B2: human BMP-10 (ligand, UniProt O95393 317-424, looked up)
chain: NAKGNYCKRTPLYIDFKEIGWDSWIIAPPGYEAYECRGVCNYPLAEHLTPTKHAIIQALVHLKNSQKASKACCVPTKLEPISILYLDKGVVTYKFKYEGMAVSECGCR
notes: also called hBMP-10
no binding (tested: 100 nM): all assays above

Source: patent US20200164029A1 (ACCELERON PHARMA, published 2020)
